Measurements published in patent US20240209076A1 (KODIAK SCIENCES, published 2024).
Numbering of substitutions follows the chain as printed. Names may count otherwise. Values belong to the binder of their own block, whether it stands above or below them.

Biological target: T1, recombinant human IL-6 (human, UniProt P05231 30-212)
T1 construct: Flowed in solution over the captured antibodies
Assay: SPR (Biacore), supernatant IgG on Protein A, 25 C
Description: Antibodies were captured on a Protein A chip (GE) by injecting 1:20 dilution of cell supernatant at 10 μL/min for 60 seconds. […] The sensor chip was regenerated by a 60 seconds injection of 10 mM Glycine pH 1.7 at flow rate of 50 μL/min. […] For this setup, 1 μg/mL of purified antibody was injected over a Protein A chip at 10 μL/min for 25-28 seconds. Data analysis for supernatant and purified samples were performed using BIAevaluation software (GE). All sensorgrams were double reference subtracted and fit using a 1:1 Langmuir binding model.

T1 sequence (P05231 30-212 limits assumed): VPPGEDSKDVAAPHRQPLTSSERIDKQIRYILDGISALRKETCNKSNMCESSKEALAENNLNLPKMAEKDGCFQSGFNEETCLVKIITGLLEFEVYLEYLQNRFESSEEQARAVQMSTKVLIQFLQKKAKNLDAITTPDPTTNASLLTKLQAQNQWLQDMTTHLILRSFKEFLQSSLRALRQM

Kd: 403 pM
koff: 0.000137 s⁻¹
kon: 340000 M⁻¹ s⁻¹
B1: anti-IL-6 antibody, heavy chain WT, light chain S24V (antibody, IgG1, V domains shown)
VH: EVQLVESGGGLVQPGGSLRLSCAASGFTFSPFAMSWVRQAPGKGLEWVAKISPGGSWTYYSDTVTGRFTFSLDTSKSTAYLQMNSLRAEDTAVYYCARQLWGYYALDIWGQGTLVTVSS
VL: DIQLTQSPSSLSASVGDRVTITCVASISVSYMYWYQQKPGKAPKLLIYDMSNLASGVPSRFSGSGSGTDFTLTISSLQPEDFATYYCMQWSGYPYTFGQGTKVEIK
notes: Full IgG1 tested; V domains derived as in m2

Kd: 281 pM
koff: 0.000223 s⁻¹
kon: 793000 M⁻¹ s⁻¹
B2: anti-IL-6 antibody, heavy chain WT, light chain S26G (antibody, IgG1, V domains shown)
VH: B1 VH
VL: B1 VL with V24S, S26G
notes: as for B1

Kd: 229 pM
koff: 0.000165 s⁻¹
kon: 718000 M⁻¹ s⁻¹
B3: anti-IL-6 antibody, heavy chain Y103E, light chain WT (antibody, IgG1, V domains shown)
VH: B1 VH with Y103E
VL: B1 VL with V24S
notes: as for B1

Kd: 284 pM
koff: 0.000135 s⁻¹
kon: 476000 M⁻¹ s⁻¹
B4: anti-IL-6 antibody, heavy chain WT, light chain S24I (antibody, IgG1, V domains shown)
VH: B1 VH
VL: B1 VL with V24I
notes: as for B1

Kd: 1340 pM
koff: 0.000703 s⁻¹
kon: 525000 M⁻¹ s⁻¹
B5: anti-IL-6 antibody, heavy chain Y104V, light chain WT (antibody, IgG1, V domains shown)
VH: B1 VH with Y104V
VL: B1 VL with V24S
notes: as for B1

Kd: 426 pM
koff: 0.000152 s⁻¹
kon: 357000 M⁻¹ s⁻¹
B6: anti-IL-6 antibody, heavy chain T58R, light chain WT (antibody, IgG1, V domains shown)
VH: B1 VH with T58R
VL: B1 VL with V24S
notes: as for B1

Kd: 404 pM
koff: 0.000209 s⁻¹
kon: 517000 M⁻¹ s⁻¹
B7: anti-IL-6 antibody, heavy chain T63G, light chain WT (antibody, IgG1, V domains shown)
VH: B1 VH with T63G
VL: B1 VL with V24S
notes: as for B1

Kd: 464 pM
koff: 0.000171 s⁻¹
kon: 369000 M⁻¹ s⁻¹
B8: anti-IL-6 antibody, heavy chain WT, light chain S28R (antibody, IgG1, V domains shown)
VH: B1 VH
VL: B1 VL with V24S, S28R
notes: as for B1

Kd: 289 pM
koff: 0.000121 s⁻¹
kon: 420000 M⁻¹ s⁻¹
B9: anti-IL-6 antibody, heavy chain WT, light chain S28E (antibody, IgG1, V domains shown)
VH: B1 VH
VL: B1 VL with V24S, S28E
notes: as for B1

Kd: 394 pM
koff: 0.000149 s⁻¹
kon: 379000 M⁻¹ s⁻¹
B10: anti-IL-6 antibody, heavy chain S61A, light chain WT (antibody, IgG1, V domains shown)
VH: B1 VH with S61A
VL: B1 VL with V24S
notes: as for B1

Kd: 423 pM
koff: 0.000174 s⁻¹
kon: 410000 M⁻¹ s⁻¹
B11: anti-IL-6 antibody, heavy chain T63D, light chain WT (antibody, IgG1, V domains shown)
VH: B1 VH with T63D
VL: B1 VL with V24S
notes: as for B1

Kd: 433 pM
koff: 0.000164 s⁻¹
kon: 379000 M⁻¹ s⁻¹
B12: anti-IL-6 antibody, heavy chain WT, light chain S26K (antibody, IgG1, V domains shown)
VH: B1 VH
VL: B1 VL with V24S, S26K
notes: as for B1

Kd: 297 pM
koff: 0.000219 s⁻¹
kon: 737000 M⁻¹ s⁻¹
B13: anti-IL-6 antibody, heavy chain Y103D, light chain WT (antibody, IgG1, V domains shown)
VH: B1 VH with Y103D
VL: B1 VL with V24S
notes: as for B1

Kd: 360 pM
koff: 0.000149 s⁻¹
kon: 415000 M⁻¹ s⁻¹
B14: anti-IL-6 antibody, heavy chain WT, light chain S26H (antibody, IgG1, V domains shown)
VH: B1 VH
VL: B1 VL with V24S, S26H
notes: as for B1

Kd: 275 pM
koff: 0.000206 s⁻¹
kon: 749000 M⁻¹ s⁻¹
B15: anti-IL-6 antibody, heavy chain T65Y, light chain WT (antibody, IgG1, V domains shown)
VH: B1 VH with T65Y
VL: B1 VL with V24S
notes: as for B1

Kd: 226 pM
koff: 0.000181 s⁻¹
kon: 803000 M⁻¹ s⁻¹
B16: anti-IL-6 antibody, heavy chain T58V, light chain WT (antibody, IgG1, V domains shown)
VH: B1 VH with T58V
VL: B1 VL with V24S
notes: as for B1

Kd: 467 pM
koff: 0.000162 s⁻¹
kon: 348000 M⁻¹ s⁻¹
B17: anti-IL-6 antibody, heavy chain S61R, light chain WT (antibody, IgG1, V domains shown)
VH: B1 VH with S61R
VL: B1 VL with V24S
notes: as for B1

Kd: 402 pM
koff: 0.000178 s⁻¹
kon: 444000 M⁻¹ s⁻¹
B18: anti-IL-6 antibody, heavy chain V64A, light chain WT (antibody, IgG1, V domains shown)
VH: B1 VH with V64A
VL: B1 VL with V24S
notes: as for B1
